# According to US20110257086A1 (Johns Hopkins, published 2011):
# T1: ghrelin O-acyltransferase (GOAT) endogenous in human cell lines (HEL, Kato III, AGS) (human, UniProt Q96T53 1-435)
# T1 sequence: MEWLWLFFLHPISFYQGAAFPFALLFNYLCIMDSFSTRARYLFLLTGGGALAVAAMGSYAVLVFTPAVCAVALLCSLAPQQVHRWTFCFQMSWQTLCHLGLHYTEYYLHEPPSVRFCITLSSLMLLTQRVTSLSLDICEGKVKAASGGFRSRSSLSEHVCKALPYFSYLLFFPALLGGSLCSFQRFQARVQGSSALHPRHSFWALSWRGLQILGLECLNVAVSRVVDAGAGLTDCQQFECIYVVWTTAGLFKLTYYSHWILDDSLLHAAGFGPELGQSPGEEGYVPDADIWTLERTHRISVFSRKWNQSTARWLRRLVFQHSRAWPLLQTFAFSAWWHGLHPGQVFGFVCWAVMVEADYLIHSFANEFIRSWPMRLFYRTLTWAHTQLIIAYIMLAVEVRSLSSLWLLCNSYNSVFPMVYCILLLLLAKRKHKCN
# B1: GO-CoA-Tat (Compound 1 of FIG. 1C), bisubstrate analog inhibitor of ghrelin O-acyltransferase (peptide)
# peptide: GSSFLSPEHQYGRKKRRQRRR
# modifications: Ser3 of ghrelin replaced with 1,2-diaminopropionic acid (Dap), whose side-chain amine carries an octanoyl group conjugated at its alpha carbon to coenzyme A; amino-hexanoyl (Ahx) linker between ghrelin residue 10 and the Tat peptide
# Columns and labels:
# Experiment in all cases: cell-based or functional assay
# [1] = target: p300 HAT
# [2] = target: serotonin N-acetyltransferase
# [3] = target: PCAF HAT
# [4] = target: T1, ghrelin O-acyltransferase (GOAT) …
binder,measurement,setting,value
B1,inhibition of acetyltransferase activity at 10 µM GO-CoA-Tat (alpha-KGDH coupled spectrophotometric assay),[1],< 15 % inhibition
same,inhibition of acetyltransferase activity at 10 µM GO-CoA-Tat (alpha-KGDH coupled spectrophotometric assay),[2],< 15 % inhibition
same,inhibition of acetyltransferase activity at 10 µM GO-CoA-Tat (alpha-KGDH coupled spectrophotometric assay),[3],< 15 % inhibition
same,"IC50 of reduction of acyl-ghrelin levels in cell lysates (HEL, Kato III, AGS cells)",[4],1000 to 2000 nM
